For assay [1], the target named is full-length RSV F (TM, residues 1–574) from strain 18537 with the DS-Cav1 prefusion-stabilizing mutations (respiratory syncytial virus subtype B, strain 18537) (UniProt P13843).
Assay [2] concerns the target prefusion-stabilized RSV F strain A2 (DS-Cav1). Nature of the assay: SPR. (In general: Surface plasmon resonance follows binding to a sensor surface in real time, without labels.)
Assay [3] deals with RSV F (+) FdTHS based on strain A2 (wild-type A2 RSV F ectodomain fused to a C-terminal trimerization motif) (respiratory syncytial virus subtype A, strain A2) (UniProt Q4KRW9). In words: crystal structure; 5C4 Fab co-expressed with RSV F (+) FdTHS in Expi293, complex purified (Ni-NTA, Strep-Tactin, thrombin, Superose 6); crystal from 0.2 M ammonium acetate, 0.1 M Bis-Tris pH 6.5, 25% PEG 3350; 3.4 Å.

Assay [4] deals with 5C4 IgG. Nature of the assay: flow cytometry on cells. The conditions noted are these: full-length pre-F variants expressed in Expi293 cells; parent: est. 0.04; read off a plot. (In general: In flow cytometry, cells or beads pass a laser one at a time.)
Assay [5] addresses D25 IgG. In words: flow cytometry on cells. Conditions: full-length pre-F variants expressed in Expi293 cells; parent: est. 0.14; read off a plot.
In assay [6] the target is 5C4 IgG. Nature of the assay: flow cytometry on cells. The conditions noted are these: full-length pre-F variants expressed in Expi293 cells, read off a plot.
Assay [7] addresses D25 IgG. Nature of the assay: flow cytometry on cells. Conditions: full-length pre-F variants expressed in Expi293 cells, read off a plot.

From paper PMC5707411 come the findings set out here.

On to 5C4 IgG (antibody), for which, in assay [1], the EC50 of 5C4 neutralisation of mKate-RSV B strain 18537 wild-type virus on HEp-2 cells (viral F without DS-Cav1; antibody format not given) came to 9.15 µg/mL.
One may read the Kd as the free concentration of one partner at which half of the binding sites on the other are occupied at equilibrium, for simple one-to-one binding. Low readings indicate a tighter complex, high ones a looser complex. As a reminder, the koff is a measure of how fast the partners let go of each other. Turning to D25 Fab, in assay [2], the dissociation constant (Kd) was under 0.0769 nM and the koff was under 1e-05 s⁻¹.
The term stoichiometry N denotes the number of molecules, sites or subunits per partner or assembly. In assay [3], “RSV F (+) FdTHS based on strain A2 (wild-type A2 RSV F ectodomain fused to a C-terminal trimerization motif) (from UniProt Q4KRW9 1-391) (complex)” displayed a stoichiometry N of 3.
On to “full-length RSV F (TM, residues 1–574) from strain 18537 with the DS-Cav1 prefusion-stabilizing mutations (from UniProt P13843) N200D”, for which the figures for the other: Relative binding (fractional binding relative to motavizumab) with 5C4 IgG [4] and with D25 IgG [5] were 0.01 and 0.33, respectively.
“full-length RSV F (TM, residues 1–574) from strain 18537 with the DS-Cav1 prefusion-stabilizing mutations (from UniProt P13843) N201A”: the other: Relative binding (fractional binding relative to motavizumab) with 5C4 IgG [6] (parent: est. 0.005) amounted to 0.01; with D25 IgG [7] (parent: est. 0.14) it was 0.003.
Regarding “full-length RSV F (TM, residues 1–574) from strain 18537 with the DS-Cav1 prefusion-stabilizing mutations (from UniProt P13843) N201K”, the other: Relative binding (fractional binding relative to motavizumab) with 5C4 IgG [4] was 0.52; with D25 IgG [5], 0.35; with 5C4 IgG [6] (parent: est. 0.005) it was 0.44; in the assay with D25 IgG [7] (parent: est. 0.14), 0.35.
Regarding “full-length RSV F (TM, residues 1–574) from strain 18537 with the DS-Cav1 prefusion-stabilizing mutations (from UniProt P13843) N201R”, the other: Relative binding (fractional binding relative to motavizumab) came out at 0.4 with 5C4 IgG [6] (parent: est. 0.005) and 0.01 with D25 IgG [7] (parent: est. 0.14).
For “full-length RSV F (TM, residues 1–574) from strain 18537 with the DS-Cav1 prefusion-stabilizing mutations (from UniProt P13843) Q209K”, the other: Relative binding (fractional binding relative to motavizumab) with 5C4 IgG [4] came to 0.19; with D25 IgG [5], 0.58.
In the same order, the values of “full-length RSV F (TM, residues 1–574) from strain 18537 with the DS-Cav1 prefusion-stabilizing mutations (from UniProt P13843) R202Q” are 0.01 and 0.37.
As for “full-length RSV F (TM, residues 1–574) from strain 18537 with the DS-Cav1 prefusion-stabilizing mutations (from UniProt P13843) R213S”, the other: Relative binding (fractional binding relative to motavizumab) came to 0.01 with 5C4 IgG [4] and 0.05 in the assay with D25 IgG [5].
On to “full-length RSV F (TM, residues 1–574) from strain 18537 with the DS-Cav1 prefusion-stabilizing mutations (from UniProt P13843) T67N”, for which the other: Relative binding (fractional binding relative to motavizumab) in the assay with 5C4 IgG [4] worked out at 0.15; with D25 IgG [5] it was 0.53.
In the same order, the values of “full-length RSV F (TM, residues 1–574) from strain 18537 with the DS-Cav1 prefusion-stabilizing mutations (from UniProt P13843) T74A” are 0.01 and 0.13.
On to “full-length RSV F (TM, residues 1–574) from strain A2 with the DS-Cav1 prefusion-stabilizing mutations A74T”, for which the other: Relative binding (fractional binding relative to motavizumab) was found to be 0.7 with 5C4 IgG [6] (parent: est. 0.75) and 0.68 with D25 IgG [7] (parent: est. 0.69).
On the same counts, the results for “full-length RSV F (TM, residues 1–574) from strain A2 with the DS-Cav1 prefusion-stabilizing mutations D200N” are 0.74 and 0.67.
On to “full-length RSV F (TM, residues 1–574) from strain A2 with the DS-Cav1 prefusion-stabilizing mutations K201A”, for which the other: Relative binding (fractional binding relative to motavizumab) was found to be 0.02 with 5C4 IgG [6] (parent: est. 0.60) and 0.64 with D25 IgG [7] (parent: est. 0.63).
In the case of “full-length RSV F (TM, residues 1–574) from strain A2 with the DS-Cav1 prefusion-stabilizing mutations K201N”, the other: Relative binding (fractional binding relative to motavizumab) in the assay with 5C4 IgG [6] (parent: est. 0.60) stood at 0.012; in the assay with 5C4 IgG [6] (parent: est. 0.75), 0.01; in the assay with D25 IgG [7] (parent: est. 0.63), 0.64; with D25 IgG [7] (parent: est. 0.69), 0.67.
On to “full-length RSV F (TM, residues 1–574) from strain A2 with the DS-Cav1 prefusion-stabilizing mutations K201R”, for which the other: Relative binding (fractional binding relative to motavizumab) in the assay with 5C4 IgG [6] (parent: est. 0.60) is 0.61; in the assay with D25 IgG [7] (parent: est. 0.63), 0.64.
For “full-length RSV F (TM, residues 1–574) from strain A2 with the DS-Cav1 prefusion-stabilizing mutations K209Q”, the other: Relative binding (fractional binding relative to motavizumab) was 0.61 with 5C4 IgG [6] (parent: est. 0.75) and 0.54 with D25 IgG [7] (parent: est. 0.69).
On the same counts, the results for “full-length RSV F (TM, residues 1–574) from strain A2 with the DS-Cav1 prefusion-stabilizing mutations N67T” are 0.6 and 0.61.
On the same counts, the results for “full-length RSV F (TM, residues 1–574) from strain A2 with the DS-Cav1 prefusion-stabilizing mutations Q202R” are 0.73 and 0.63.
In the case of “full-length RSV F (TM, residues 1–574) from strain A2 with the DS-Cav1 prefusion-stabilizing mutations S213R”, the figures for the other: Relative binding (fractional binding relative to motavizumab) in the assay with 5C4 IgG [6] (parent: est. 0.75) and in the assay with D25 IgG [7] (parent: est. 0.69) were 0.7 and 0.65, respectively.
